Assay [1] has as its target T1, biotinylated CIB1 (Homo sapiens, UniProt Q99828).
T1 sequence (Q99828 1-191): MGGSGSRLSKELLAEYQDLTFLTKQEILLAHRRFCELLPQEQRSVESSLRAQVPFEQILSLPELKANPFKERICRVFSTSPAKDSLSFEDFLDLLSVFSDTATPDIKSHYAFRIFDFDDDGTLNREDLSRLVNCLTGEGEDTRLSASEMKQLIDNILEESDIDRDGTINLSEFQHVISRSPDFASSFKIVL
As to the kind of experiment: biochemical. Format: binding.

In assay [2] the target is T2, full length human CIB1 (Homo sapiens, UniProt Q99828).
T2 sequence (Q99828 1-191): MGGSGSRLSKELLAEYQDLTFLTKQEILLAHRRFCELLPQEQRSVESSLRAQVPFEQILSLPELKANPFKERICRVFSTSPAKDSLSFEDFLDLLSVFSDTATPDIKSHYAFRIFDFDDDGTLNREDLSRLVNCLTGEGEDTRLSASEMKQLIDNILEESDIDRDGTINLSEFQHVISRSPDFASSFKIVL
As to the kind of experiment: Isothermal titration calorimetry. Particulars: ITC, 25°C, one site binding model; replicates as for Kd.

The target of assay [3] is T3, Full length human CIB1 (calcium and integrin binding protein 1), N-terminal hexahistidine tag (human, UniProt Q99828 1-191).
T3 sequence (looked up): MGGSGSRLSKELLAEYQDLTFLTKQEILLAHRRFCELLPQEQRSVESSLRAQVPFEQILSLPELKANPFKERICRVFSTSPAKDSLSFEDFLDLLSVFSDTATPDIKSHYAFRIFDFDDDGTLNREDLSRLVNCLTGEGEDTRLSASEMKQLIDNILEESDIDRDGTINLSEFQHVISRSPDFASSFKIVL
The assay is described as follows: ITC. (Isothermal titration calorimetry measures the heat released or taken up as one component is titrated into another.)

Ends that are not written are not given here.

One may read the IC50 as the point on the concentration scale where inhibition reaches its midpoint. The low end stands for higher potency, the high end for lower potency. The Kd is a measure of binding affinity in units of concentration. Take EDGGSFWYGAMKALYG-NH2 [UNC10245092]: in assay [1], half-maximal inhibition (IC50) required 46 ± 13 nM and the Kd turned out to be 46 ± 13 nM. Also, in assay [2], the “n (binding stoichiometry)” value is reported as 1.1 ± 0.1 and the ΔH was -14.4 ± 2.2 kcal/mol.
One may read the stoichiometry N as a count of units in the complex or per binding partner. As to Ac-EDGGSFWYGAMKALYG [Acetyl long (Ac-EDGGSFWYGAMKALYG)], in assay [3], the Kd was 45 nM, the dH is -16.1 kcal/mol and the “stoichiometry N” value turned out to be 1.1.
The like results for Ac-FWYGAMKALYG [Acetyl short (Ac-FWYGAMKALYG)] were, in that order, 52.1 nM, -14 kcal/mol and 1.1.
The corresponding values for H-EDGGSFWYGAMKALYG-NH2 [UNC10245092 (NH2-EDGGSFWYGAMKALYG-amide)] are 29.4 nM, -14.4 kcal/mol and 1.1.
Take EDGGSFWYGGMKALYG [UNC10245092 A5G]: in assay [3], the dH is -7.7 kcal/mol and the “stoichiometry N” value was 1.
EDGGSFWYGAAKALYG [UNC10245092 M6A]: in assay [3], the dH was -8.1 kcal/mol and the “stoichiometry N” value was 1.
The like results for EDGGSFWYGAMKAAYG [UNC10245092 L9A] were, in that order, -8.8 kcal/mol and 0.99.
Take EDGGSFWYGAMKGLYG [UNC10245092 A8G]: in assay [3], the dH was -13.8 kcal/mol and the “stoichiometry N” value was 1.
The like results for EDGGSFAYGAMKALYG [UNC10245092 W2A] were, in that order, -5.9 kcal/mol and 0.67.
The like results for EDGGSFWAGAMKALYG [UNC10245092 Y3A] were, in that order, -16.1 kcal/mol and 1.
EDGGSAWYGAMKALYG [UNC10245092 F1A]: in assay [3], the dH is -9.8 kcal/mol and the “stoichiometry N” value worked out at 0.94.
The corresponding values for EDGGSFWYGAMKALAG [UNC10245092 Y10A] are -7.1 kcal/mol and 1.1.

The values above are taken from article PMC7305997 (ACS chemical biology, 2020).
